In patent US20170137511A1 (CALYPSO BIOTECH, published 2017):
Numbering of substitutions follows the chain as printed. Each block holds one binder with its values, some of them ahead of it.

Key:
[1] = biological target: T1, recombinant human IL-15 (Prospec cat no. CYT230) (human, UniProt P40933 49-162); assay: SPR (Biacore 3000), human IL-15 amine-coupled to the chip, antibody injected, 1:1 Langmuir fit
Protocol: Human IL-15 (Prospec cat no. CYT230) was immobilized onto a CMS chip (GE Healthcare) using standard amine coupling, and antibodies injected at various concentrations in 120 μl phosphate buffer saline with a flow rate of […]. Binding kinetics were analyzed on a Biacore 3000 apparatus (GE Healthcare) with a 300 seconds dissociation period. Reference signal and 0 nM antibody concentration signal were substracted and data fitted using a 1:1 (Langmuir) binding model.

[2] = biological target: T2, recombinant rat IL-15 (Sigma cat. no. SRP4172) (rat, UniProt P97604 49-162); assay: ELISA, plate-bound recombinant rat IL-15 (100 ng/well), HRP goat anti-human IgG, absorbance at 450 nm
T2 sequence: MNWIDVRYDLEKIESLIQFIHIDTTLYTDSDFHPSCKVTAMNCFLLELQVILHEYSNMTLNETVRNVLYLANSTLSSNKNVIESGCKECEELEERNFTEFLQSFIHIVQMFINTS
Protocol: (§1) Maxisorp plates were coated with recombinant mouse IL-15 (R&D Systems cat. no. 447-ML) or rat IL-15 (Sigma cat. no. SRP4172) at 100 ng/well in carbonate coating buffer for 2 hours at 37° C. Tested IL-15 recombinant proteins have a sequence identical to that provided in SEQ ID NO: 2 (mouse IL-15) and SEQ ID NO: 3 (rat IL-15) but with an additional methionine at the N-terminal position as usually done for expressing recombinant proteins in E. Coli.
(§2) The plate was then blocked with 2% normal goat serum for 30 min at 37° C. and washed 6 times with PBS-Tween (0.05% Tween-20 in PBS, v/v). Test antibodies were added to the plate in triplicate at various dilutions in PBS-Tween and the plate was incubated with gentle rocking at room temperature for 2 hours. As positive controls, rabbit-anti-mouse IL-15 (Acris cat. no. AP01124PU-S) or rabbit anti-rat IL-15 (Biovision cat. no. 5172) antibodies were tested at the same concentrations. The plate was then washed 6 times with PBS-Tween and an appropriate dilution of HRP-conjugated goat anti-human IgG antibody (Millipore cat. no. AP309P) for humanized antibodies, or goat-anti-rabbit IgG antibody (Sigma cat. no. A 4416) for the positive controls was added and the plate was left rocking at room temperature for 1 hour. The plate was then washed 6 times with PBS-Tween and incubated with TMB substrate. The reaction was stopped by the addition of 1M H₂SO₄ and read at 450 nm. Dose response curves of absorbance versus concentration were plotted using the Graphpad Prism software.

[3] = biological target: T3, recombinant Macaque Monkey IL-15 (MyBiosource cat. no. MBS948894) (Rhesus macaque / Cynomolgus monkey, UniProt P40221 49-162 (Chlorocebus aethiops entry)); assay: cell-based or functional assay
T3 sequence (P40221 49-162): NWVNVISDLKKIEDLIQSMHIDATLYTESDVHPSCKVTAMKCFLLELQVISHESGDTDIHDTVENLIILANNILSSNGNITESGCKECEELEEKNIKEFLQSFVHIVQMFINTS

[4] = biological target: T4, recombinant human IL-15 (R&D systems cat. no. 247-IL) (human, UniProt P40933 49-162); assay: cell-based or functional assay
T4 sequence (P40933 49-162 limits assumed): as the sequence (P40221 49-162) above, with H52L, T57A, D58S, I73S, I80V counted along it

[5] = biological target: T1, recombinant human IL-15 (Prospec cat …); assay: ELISA, plate-bound human IL-15; printed as BC50 (half-maximal binding concentration)
Protocol: (§3) Maxisorp plates were coated with recombinant human IL-15 (Prospec cat no. CYT230) or Rhesus macaque IL-15 (MyBiosource cat. no. MBS948894) at 100 ng/well in carbonate coating buffer for 2 hours at 37° C. Since published sequences of Rhesus macaque and Cynomolgus monkey IL-15 are identical, such recombinant IL-15 protein was referred to as Macaque Monkey IL-15. Tested human IL-15 recombinant protein has a sequence identical to that provided in SEQ ID NO: 1 but with an additional methionine at the N-terminal position as usually done for expressing recombinant proteins in E. Coli. Tested recombinant Macaque Monkey IL-15 was produced in yeast and has a sequence identical to that provided in SEQ ID NO: 4 but with an additional N-terminal His tag.
(§4) The plate was then blocked with 2% normal goat serum for 30 min at 37° C. and washed 6 times with PBS-Tween (0.05% Tween-20 in PBS, v/v). Test antibodies were added to the plate in triplicate at various dilutions in PBS-Tween and the plate was incubated with gentle rocking at room temperature for 2 hours. The plate was then washed 6 times with PBS-Tween and an appropriate dilution of goat anti-human IgG antibody (Millipore cat. no. AP309P) conjugated to horseradish peroxidase (HRP) was added to the plate and left rocking at room temperature for 1 hour. The plate was then washed 6 times with PBS-Tween and incubated with TMB substrate. The reaction was stopped by the addition of 1M H₂SO₄ and read at 450 nm. Dose response curves of absorbance versus concentration were plotted and analyzed to determine half-maximal binding concentrations (BC₅₀) using the Graphpad Prism software. BC₅₀ values expressed as molarity were extrapolated from concentration in ng/ml using a 150 kDa molecular weight value for all antibodies.

[6] = biological target: T5, recombinant mouse IL-15 (R&D Systems cat. no. 447-ML) (mouse, UniProt P48346 49-162); assay: ELISA, plate-bound recombinant mouse IL-15 (100 ng/well), HRP goat anti-human IgG, absorbance at 450 nm
T5 sequence: T2 sequence with F19S, I82A, R95K, N96T, H106R
Protocol: as §1, §2

[7] = biological target: T3, recombinant Macaque Monkey IL-15 …; assay: ELISA, plate-bound Macaque Monkey IL-15; printed as BC50 (half-maximal binding concentration)
Protocol: as §3, §4

[8] = biological target: T4, recombinant human IL-15 (R&D systems …); assay: cell-based or functional assay; remark: listed apart in the source
[9] = biological target: recombinant human IL-2 (R&D Systems cat. no. 202-IL-010) (human, UniProt P60568 21-153); assay: ELISA, plate-bound recombinant human IL-2 (100 ng/well), HRP goat anti-human IgG, absorbance at 450 nm
recombinant human IL-2 (R&D Systems cat. no. 202-IL-010), sequence (P60568 21-153 limits assumed): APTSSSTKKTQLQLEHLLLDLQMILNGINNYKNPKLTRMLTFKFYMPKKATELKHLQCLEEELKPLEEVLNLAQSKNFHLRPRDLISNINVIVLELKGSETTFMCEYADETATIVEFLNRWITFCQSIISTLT
Protocol: Maxisorp plates were coated with recombinant human IL-2 (R&D Systems cat. no. 202-IL-010) of SEQ ID NO: 38 at 100 ng/well in carbonate coating buffer for 2 hours at 37° C. The plate was then blocked with 2% normal goat serum for 30 min at 37° C. and washed 4 times with PBS-Tween (0.05% Tween-20 in PBS, v/v). Test antibodies or positive control biotinylated antibody (anti-IL-2 Novus Bio cat. no. NBP1-43491) were added to the plate in duplicate at 5 μg/ml in PBS-Tween and the plate was incubated with gentle rocking at room temperature for 2 hours. The plate was then washed 4 times with PBS-Tween and an appropriate dilution of goat anti-human IgG antibody (Millipore cat. no. AP309P) conjugated to horseradish peroxidase (HRP) for test antibodies, or streptavidin-HRP for positive control antibody, was added to the plate and left rocking at room temperature for 1 hour. The plate was then washed 4 times with PBS-Tween and incubated with TMB (3,3′,5,5′-tetramethylbenzidine) substrate. The reaction was stopped by the addition of 1 M H₂SO₄ and read at 450 nm.

[10] = biological target: T6, human IL-15 (preparation not stated) (human, UniProt P40933 49-162, limits assumed); assay: cell-based or functional assay
T6 sequence (P40933 49-162 limits assumed): as the sequence (P40221 49-162) above, with H52L, T57A, D58S, I73S, I80V counted along it

[11] = biological target: T1, recombinant human IL-15 (Prospec cat …); assay: ELISA, plate-bound recombinant human IL-15 (100 ng/well), HRP goat anti-human IgG, absorbance at 450 nm
Protocol: as §3
The plate was then blocked with 2% normal goat serum for 30 min at 37° C. and washed 6 times with PBS-Tween (0.05% Tween-20 in PBS, v/v). […] The reaction was stopped by the addition of 1M H₂SO₄ and read at 450 nm. Dose response curves of absorbance versus concentration were plotted and analyzed to determine half-maximal binding concentrations (BC₅₀) using the Graphpad Prism software. BC₅₀ values expressed as molarity were extrapolated from concentration in ng/ml using a 150 kDa molecular weight value for all antibodies.

[12] = biological target: T6, human IL-15 (preparation not stated); assay: ELISA screen of hybridoma supernatants
[13] = biological target: T6, human IL-15 (preparation not stated); assay: ELISA; the weaker binders of the comparison

T1 sequence (P40933 other isoform, or with tags, fused parts or gaps): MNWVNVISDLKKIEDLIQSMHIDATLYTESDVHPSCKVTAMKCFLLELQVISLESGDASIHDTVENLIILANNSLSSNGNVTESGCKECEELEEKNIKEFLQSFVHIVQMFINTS

- Kd [1]: 0.0094 nM
- koff [1]: 1.07e-05 s⁻¹
- kon [1]: 1.15e+06 M⁻¹ s⁻¹
- IC50 in Kit 225 cells (nM), Macaque Monkey IL-15 [3]: 0.112 nM
- IC50 in M-07e cells (nM), Macaque Monkey IL-15 [3]: 0.23 nM
- IC50 in Kit 225 cells (nM), Human IL-15 [4]: 0.083 nM
- IC50 in M-07e cells (nM), Human IL-15 [4]: 0.017 nM
- EC50 [5]: 1.47 nM
- EC50 [7]: 0.34 nM
- IC50 in M07e cells for IL-15 trans presentation [8]: 0.37 nM
- binding result [9]: no binding (tested: 5 µg/ml)
- half-maximal inhibitory concentration (IC50) of IL-15-induced prevention of apoptosis, type II RCD primary IEL cell line HAM RAC [10]: 2.36 nM
B1: huB-E29-2 (antibody, human IgG1, kappa)
heavy: not shown
light: DVVMTQSPLSLPVTLGQPASISCRSSQSIVDITGNTYLEWYQQRPGQSPRLLIYKVFNRFSGVPDRFSGSGSGTDFTLKISRVEAEDVGVYYCFQDSFVPYTFGQGTKLEIKRTVAAPSVFIFPPSDEQLKSGTASVVCLLNNFYPREAKVQWKVDNALQSGNSQESVTEQDSKDSTYSLSSTLTLSKADYEKHKVYACEVTHQGLSSPVTKSFNRGEC
notes: Humanized B-E29 variant; human IgG1 (G1m3) / kappa (Km3), produced in CHO cells; also called huVH2/huVL1
- binding result [2]: no binding (tested: log 3.7 (about 5000 ng/mL))
- binding result [6]: no binding (tested: log 3.7 (about 5000 ng/mL))

- binding result [13]: binds
B5: cVH1:hVK2 (antibody, human IgG1, kappa, V domains shown)
VH: EVRLMASGGGLVKPGGSLKLSCAASEFTFSNYAMSWVRQTPEKRLEWVATISRGGDYTYYPDSVKGRFTISRDNAKNTLYLQMSSLRSEDTALYYCARRVSMITGGWAMDYWGQGTSVTVSS
VL: EVVMTQSPATLSLSPGERATLSCRSSQSIVDITGNTYLEWYQQKPGQAPRLLIYKVFNRFSGIPARFSGSGSGTDFTLTISSLEPEDFAVYYCFQDSFVPYTFGQGTKLEIKR
notes: Human IgG1 (G1m3) / kappa (Km3)

Further lines, the binder ahead of its results:

B2: 146B7 (comparative antibody 2) (antibody, V domains shown)
VH: EVQLVQSGAEVKKPGESLKISCKVSGYFFTTYWIGWVRQMPGKGLEYMGIIYPGDSDTRYSPSFQGQVTISADKSISTAYLQWSSLKASDTAMYYCARGGNWNCFDYWGQGTLVTVSS
VL: EIVLTQSPGTLSLSPGERATLSCRASQSVSSSYLAWYQQKPGQAPRLLIYGASRRATGIPDRFSGSGSGTDFTLTISRLEPEDFAVYYCQRYGSSHTFGQGTKLEIS
notes: Fully human antibody of the prior art (WO 03/017935), 'produced in the same expression system'; also called AMG 714; HuMaxIL-15
- EC50 (read off the curve) [11]: ~0.8 µg/mL
- Kd [1]: 0.0367 nM
- koff [1]: 5.26e-05 s⁻¹
- kon [1]: 1.44e+06 M⁻¹ s⁻¹
- IC50 in Kit 225 cells (nM), Human IL-15 [4]: 3.7 nM
- IC50 in M-07e cells (nM), Human IL-15 [4]: 3.2 nM
- EC50 [5]: 8.41 nM
- EC50 [7]: 0.733 nM
- IC50 in M07e cells for IL-15 trans presentation [8]: 0.63 nM

B3: mouse anti-IL-15 monoclonal antibody B-E29 (antibody, V domains shown)
VH: B5 VH
VL: DVLMTQTPLSLPVSLGDQASISCRSSQSIVDITGNTYLEWYLQKPGQSPKLLIYKVFNRFSGVPDRFSGSGSGTDFTLKISRVEAEDLGLYYCFQDSFVPYTFGGGTKLEIK
notes: Mouse IgG1 (heavy chain) kappa (light chain); also called mouse B-E29; comparative antibody 1
- binding result [12]: binds

B4: hVH1:hVK2 (antibody, human IgG1, kappa, V domains shown)
VH: B5 VH with K13Q, K19R, T40A, E42G, R44G, A75S, S84N, S88A, L93V, S117L
VL: B5 VL
notes: as for B5
- binding result [13]: binds
